Experimental data: patent US20250340631A1 (HARBOUR BIOMED SHANGHAI, published 2025)

T1: Human CD32a(H) (human, UniProt P12318 36-218, limits assumed)
T1 sequence (looked up): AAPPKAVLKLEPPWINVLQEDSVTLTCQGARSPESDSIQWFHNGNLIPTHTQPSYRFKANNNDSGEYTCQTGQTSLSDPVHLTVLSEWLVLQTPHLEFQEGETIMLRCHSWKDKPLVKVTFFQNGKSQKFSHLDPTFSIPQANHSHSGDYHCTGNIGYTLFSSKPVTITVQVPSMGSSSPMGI

T2: Human CD32b (human, UniProt P31994 46-217, limits assumed)
T2 sequence (looked up): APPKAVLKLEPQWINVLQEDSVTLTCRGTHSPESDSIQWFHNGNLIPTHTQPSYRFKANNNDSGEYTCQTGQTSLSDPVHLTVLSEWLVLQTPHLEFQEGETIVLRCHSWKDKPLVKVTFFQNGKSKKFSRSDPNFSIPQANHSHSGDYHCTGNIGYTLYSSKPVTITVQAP


Legend:
[1] = target: T3, human CD3 on Jurkat cells (human, UniProt P07766 23-207); assay: FACS on Jurkat cells
T3 construct: whole, on cells; on cells it stands in the whole CD3/TCR complex; also called CD3-expressing cells
T3 sequence (P07766 23-207): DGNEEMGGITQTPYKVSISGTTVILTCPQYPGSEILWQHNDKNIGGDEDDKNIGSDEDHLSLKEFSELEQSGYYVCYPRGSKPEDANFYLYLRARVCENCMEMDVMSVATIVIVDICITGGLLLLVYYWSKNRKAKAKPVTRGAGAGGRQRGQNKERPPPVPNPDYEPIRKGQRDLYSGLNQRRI
Experimental: (§1) Antibodies were assayed for binding affinity by FACS. Test cells include HEK293/hCLDN18.2, HEK293/hCLDN18.1, NUGC4_D8 and Jurkat cells. […] The cell density was adjusted to 10⁶ cells/mL, and 50 μL of the cell suspension was added to each well of a 96-well plate. Antibodies were diluted to different concentrations with FACS buffer, and 50 μL of the antibody dilution was added to each well of the 96-well plate. After 2 h of incubation at 4° C., the plate was washed twice with FACS buffer. […] After 1 h of incubation at 4° C., the plate was washed twice with FACS buffer. The cells were resuspended in fixative solution, and then the fluorescence of the cells was monitored using an FACS instrument (ACEA NovoCyte).

human CLDN18.2 [2] = target: T4, human CLDN18.2 (human); assay: FACS on NUGC4_D8 cells
T4 construct: the HEK293 line was made with a GenScript plasmid; also called hCLDN18.2

human CLDN18.2 [3] = target: T4, human CLDN18.2; assay: cell-based or functional assay
[4] = target: CLDN18.2 of SNU620 cells (methionine to leucine at amino acid 149) (human, UniProt P56856-2 1-261); assay: cell-based or functional assay
Sequence of CLDN18.2 of SNU620 cells (methionine to leucine at amino acid 149) (P56856 other isoform, or with tags, fused parts or gaps limits assumed): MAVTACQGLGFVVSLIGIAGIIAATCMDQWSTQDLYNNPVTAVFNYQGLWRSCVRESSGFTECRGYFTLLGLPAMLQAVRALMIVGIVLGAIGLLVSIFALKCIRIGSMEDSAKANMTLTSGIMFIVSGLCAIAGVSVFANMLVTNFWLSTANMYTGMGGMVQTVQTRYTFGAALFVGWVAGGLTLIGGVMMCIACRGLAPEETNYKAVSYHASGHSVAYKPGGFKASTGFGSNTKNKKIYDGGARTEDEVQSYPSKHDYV

human CLDN18.2 [5] = target: T4, human CLDN18.2; assay: FACS on HEK293/hCLDN18.2 cells
Experimental: as §1

Human CD16a(F) = Human CD16a(F) (human, UniProt P08637 17-208); assay: BLI (Octet), antibody on FAB2G sensor
Sequence of Human CD16a(F) (P08637 17-208 limits assumed): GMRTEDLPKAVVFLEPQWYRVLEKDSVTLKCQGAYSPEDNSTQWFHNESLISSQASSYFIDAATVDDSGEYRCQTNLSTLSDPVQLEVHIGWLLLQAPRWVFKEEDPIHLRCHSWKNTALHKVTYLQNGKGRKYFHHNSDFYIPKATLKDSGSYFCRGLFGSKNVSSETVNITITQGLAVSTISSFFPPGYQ
Experimental: (§2) The binding kinetics between proteins and antibodies was analyzed by the Biolayer Interferometry (BLI) technique using an Octet Red 96e (Fortebio) system. The rotation speed was set at 1000 rpm for the system. […] After equilibrated in the buffer for 120 s, the FAB2G sensor was allowed to bind to 2-fold serially diluted human Fc receptor protein. Finally, the FAB2G sensor was immersed in a 10 mM glycine-hydrochloric acid solution at pH 1.5 for regeneration to elute the proteins bound to the sensor. The affinity assays of antibodies for FcRn were performed under the conditions of both pH 6.0 buffer and pH 7.4 buffer. […] For the interactions of fast binding and fast dissociation, the “steady state” method was selected to fit the data to obtain KD(M) values.

Human CD32a(H) = target: T1, Human CD32a(H); assay: BLI (Octet), antibody on FAB2G sensor
Experimental: as §2

Human CD32b = target: T2, Human CD32b; assay: BLI (Octet), antibody on FAB2G sensor
Experimental: as §2

Human CD64 = target: T5, Human CD64 (human, UniProt P12314 16-288, limits assumed); assay: BLI (Octet), antibody on FAB2G sensor, 1:1 global fit
T5 construct: bought recombinant protein
T5 sequence (P12314 16-288 limits assumed): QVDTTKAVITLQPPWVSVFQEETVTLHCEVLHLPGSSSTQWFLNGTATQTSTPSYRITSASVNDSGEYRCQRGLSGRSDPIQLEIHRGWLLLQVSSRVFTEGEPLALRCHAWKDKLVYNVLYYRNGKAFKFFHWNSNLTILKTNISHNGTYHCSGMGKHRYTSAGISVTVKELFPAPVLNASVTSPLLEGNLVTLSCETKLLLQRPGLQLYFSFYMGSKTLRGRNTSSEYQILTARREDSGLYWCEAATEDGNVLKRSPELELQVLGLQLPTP
Experimental: as §2

Human CD16a(V) = Human CD16a(V) (human, UniProt P08637 17-208); assay: BLI (Octet), antibody on FAB2G sensor, steady state fit
Sequence of Human CD16a(V) (P08637 17-208 F176V limits assumed): as the sequence (P08637 17-208 limits assumed) above, with F160V counted along it
Experimental: as §2

Human FcRn = Human FcRn (human, UniProt P55899 24-297; P61769 21-119); assay: BLI (Octet), antibody on FAB2G sensor, pH 6.0, 1:1 global fit; pH 6.0; 400-25 nM
Experimental: as §2

human CLDN18.2 [6] = target: T4, human CLDN18.2; assay: competition FACS on HEK293/hCLDN18.2 cells; competitor 10 nM biotinylated PR000400
Experimental: This example is to study the binding of anti-human CLDN18.2 bispecific antibodies to the epitope region of a human CLDN18.2 antigen. Competitive binding experiments were performed at the cellular level using human CLDN18.2-overexpressing HEK293/hCLDN18.2 cells. […] The mixture was well mixed and incubated at 4° C. for 30 min. 25 μL of the corresponding serially diluted non-biotinylated anti-human CLDN18.2 antibody was added. The mixture was well mixed and incubated at 4° C. for 1 h. The cells in each well were washed twice with 200 μL of pre-cooled FACS buffer (2% BSA in DPBS) and centrifuged at 500 g at 4° C. for 5 min, and then the supernatant was discarded. A fluorescent secondary antibody (Jackson ImmunoResearch, 016-540-084, 1:500) was added. The mixture was incubated at 4° C. in the absence of light for 1 h. The cells in each well were washed twice with 200 μL of pre-cooled FACS buffer (2% BSA in DPBS) and centrifuged at 500 g at 4° C. for 5 min, and then the supernatant was discarded. Finally, the cells in each well were resuspended in 200 μL of pre-cooled FACS buffer, and the fluorescence signal values were read using a ACEA_NovoCyte.

human CLDN18.2 [7] = target: T4, human CLDN18.2; assay: competition FACS on HEK293/hCLDN18.2 cells; competitor 200 nM biotinylated PR004549

Row | EC50 [1] [nM] | EC50 (human CLDN18.2 [2]) [nM] | TDCC, Titer EC50 (pM), NUGC4_D8 (human CLDN18.2 [3]) [pM] | TDCC, Titer EC50 (pM), SNU620 [4] [pM] | EC50 (human CLDN18.2 [5]) [nM] | binding result (Human CD16a(F)) | binding result (Human CD32a(H)) | binding result (Human CD32b) | Kd (Human CD64) [nM] | koff (Human CD64) [s⁻¹] | kon (Human CD64) [M⁻¹ s⁻¹] | Kd (Human CD16a(V)) [nM] | Kd (Human FcRn) [nM] | koff (Human FcRn) [s⁻¹] | kon (Human FcRn) [M⁻¹ s⁻¹] | IC50 (human CLDN18.2 [6]) [nM] | Maximum inhibition rate (%) (human CLDN18.2 [6]) | IC50 (human CLDN18.2 [7]) [nM] | Maximum inhibition rate (%) (human CLDN18.2 [7]) | Binder
1 | 85.9 | 20.5 | 11 | 38.5 | 16 | no binding (tested: 10000-625 nM) | no binding (tested: 10000-625 nM) | no binding (tested: 10000-625 nM) | 47.1 | 0.0417 | 885000 | 2300 | 215 | 0.0644 | 300000 | 122 | 96.2 | 74.4 | 48 | PR005411 (bispecific antibody, human IgG1, lambda, L234A L235A, structure 1; CD3 Fab from PR003886, CLDN18.2 VH from PR007245; LALA) EVQLVESGGGLVQPGGSLRLSCAASGFTFSSYWMHWVRQVPGKGLVWVSRISSDASRTIYADSVKGRFTISRDNAKNTLYLQMNSLRAEDTAVYYCARGEDHDILTGYPIRGQGTTVTVSSGGGGSGGGGSGGGGSEVQLVESGGGLVQPGGSLRLSCAASGFTFSSYWMHWVRQVPGKGLVWVSRISSDASRTIYADSVKGRFTISRDNAKNTLYLQMNSLRAEDTAVYYCARGEDHDILTGYPIRGQGTTVTVSSASEPKSSDKTHTCPPCPAPEAAGGPSVFLFPPKPKDTLMISRTPEVTCVVVDVSHEDPEVKFNWYVDGVEVHNAKTKPREEQYNSTYRVVSVLTVLHQDWLNGKEYKCKVSNKALPAPIEKTISKAKGQPREPQVCTLPPSREEMTKNQVSLSCAVKGFYPSDIAVEWESNGQPENNYKTTPPVLDSDGSFFLVSKLTVDKSRWQQGNVFSCSVMHEALHNHYTQKSLSLSPGK heavy: not shown light: QAVVTQEPSLTVSPGGTVTLTCRSSTGAVTTSNYANWVQQKPGQAPRGLIGGTNKRAPWTPARFSGSLLGDKAALTLLGAQPEDEAEYFCALWYSNLWVFGGGTKLTVLGQPKAAPSVTLFPPSSEELQANKATLVCLISDFYPGAVTVAWKADSSPVKAGVETTTPSKQSNNKYAASSYLSLTPEQWKSHRSYSCQVTHEGSTVEKTVAPTECS
2 | 40.6 | 31.3 | 48.5 |  |  | no binding (tested: 10000-625 nM) | no binding (tested: 10000-625 nM) | no binding (tested: 10000-625 nM) | 53.9 | 0.0471 | 874000 | 3000 | 210 | 0.0626 | 298000 |  |  |  |  | PR006023 (bispecific antibody, human IgG1, lambda, L234A L235A, structure 1; CD3 Fab from PR001848, CLDN18.2 VH from PR007246; LALA) EVQLVESGGGLVQPGGSLRLSCAASGFTFSSYWMHWVRQVPGKGLVWVSRISSTGSRTIYADSVKGRFTISRDNAKNTLYLQMNSLRAEDTAVYYCARGEDHDILTGYPIRGQGTTVTVSSGGGGSGGGGSGGGGSEVQLVESGGGLVQPGGSLRLSCAASGFTFSSYWMHWVRQVPGKGLVWVSRISSTGSRTIYADSVKGRFTISRDNAKNTLYLQMNSLRAEDTAVYYCARGEDHDILTGYPIRGQGTTVTVSSASEPKSSDKTHTCPPCPAPEAAGGPSVFLFPPKPKDTLMISRTPEVTCVVVDVSHEDPEVKFNWYVDGVEVHNAKTKPREEQYNSTYRVVSVLTVLHQDWLNGKEYKCKVSNKALPAPIEKTISKAKGQPREPQVCTLPPSREEMTKNQVSLSCAVKGFYPSDIAVEWESNGQPENNYKTTPPVLDSDGSFFLVSKLTVDKSRWQQGNVFSCSVMHEALHNHYTQKSLSLSPGK heavy: not shown light: QAVVTQEPSLTVSPGGTVTLTCRSSTGAVTTSNYANWVQQKPGQAPRGLIGGTNKRAPWTPARFSGSLLGDKAALTLLGAQPEDEAEYFCALWYSNLWVFGGGTKLTVLGQPKAAPSVTLFPPSSEELQANKATLVCLISDFYPGAVTVAWKADSSPVKAGVETTTPSKQSNNKYAASSYLSLTPEQWKSHRSYSCQVTHEGSTVEKTVAPTECS
